The values below come from IntAct's records for PubMed 16763556.

B1: DNA polymerase iota (Homo sapiens), Q9UNA4 (parent)
chain: MEKLGVEPEEEGGGDDDEEDAEAWAMELADVGAAASSQGVHDQVLPTPNASSRVIVHVDLDCFYAQVEMISNPELKDKPLGVQQKYLVVTCNYEARKLGVKKLMNVRDAKEKCPQLVLVNGEDLTRYREMSYKVTELLEEFSPVVERLGFDENFVDLTEMVEKRLQQLQSDELSAVTVSGHVYNNQSINLLDVLHIRLLVGSQIAAEMREAMYNQLGLTGCAGVASNKLLAKLVSGVFKPNQQTVLLPESCQHLIHSLNHIKEIPGIGYKTAKCLEALGINSVRDLQTFSPKILEKELGISVAQRIQKLSFGEDNSPVILSGPPQSFSEEDSFKKCSSEVEAKNKIEELLASLLNRVCQDGRKPHTVRLIIRRYSSEKHYGRESRQCPIPSHVIQKLGTGNYDVMTPMVDILMKLFRNMVNVKMPFHLTLLSVCFCNLKALNTAKKGLIDYYLMPSLSTTSRSGKHSFKMKDTHMEDFPKDKETNRDFLPSGRIESTRTRESPLDTTNFSKEKDINEFPLCSLPEGVDQEVFKQLPVDIQEEILSGKSREKFQGKGSVSCPLHASRGVLSFFSKKQMQDIPINPRDHLSSSKQVSSVSPCEPGTSGFNSSSSSYMSSQKDYSYYLDNRLKDERISQGPKEPQGFHFTNSNPAVSAFHSFPNLQSEQLFSRNHTTDSHKQTVATDSHEGLTENREPDSVDEKITFPSDIDPQVFYELPEAVQKELLAEWKRAGSDFHIGHK
B2: DNA polymerase eta (Homo sapiens), Q9Y253 (parent)
chain: MATGQDRVVALVDMDCFFVQVEQRQNPHLRNKPCAVVQYKSWKGGGIIAVSYEARAFGVTRSMWADDAKKLCPDLLLAQVRESRGKANLTKYREASVEVMEIMSRFAVIERASIDEAYVDLTSAVQERLQKLQGQPISADLLPSTYIEGLPQGPTTAEETVQKEGMRKQGLFQWLDSLQIDNLTSPDLQLTVGAVIVEEMRAAIERETGFQCSAGISHNKVLAKLACGLNKPNRQTLVSHGSVPQLFSQMPIRKIRSLGGKLGASVIEILGIEYMGELTQFTESQLQSHFGEKNGSWLYAMCRGIEHDPVKPRQLPKTIGCSKNFPGKTALATREQVQWWLLQLAQELEERLTKDRNDNDRVATQLVVSIRVQGDKRLSSLRRCCALTRYDAHKMSHDAFTVIKNCNTSGIQTEWSPPLTMLFLCATKFSASAPSSSTDITSFLSSDPSSLPKVPVTSSEAKTQGSGPAVTATKKATTSLESFFQKAAERQKVKEASLSSLTAPTQAPMSNSPSKPSLPFQTSQSTGTEPFFKQKSLLLKQKQLNNSSVSSPQQNPWSNCKALPNSLPTEYPGCVPVCEGVSKLEESSKATPAEMDLAHNSQSMHASSASKSVLEVTQKATPNPSLLAAEDQVPCEKCGSLVPVWDMPEHMDYHFALELQKSFLQPHSSNPQVVSAVSHQGKRNPKSPLACTNKRPRPEGMQTLESFFKPLTH

Variants of B1 are the subject of the first test. As to conditions: with ubc_human UBC.
As to P717R, the “effect of a mutation on the interaction” value is reported as “decreasing interaction strength”.

The next test covers variants of B2. To be noted: with ubc_human UBC.
Turning to H654A, the “effect of a mutation on the interaction” value was “disrupting interaction”.
